Experimental findings from publication PMC12370899, “Promiscuous and multivalent interactions between Eps15 and partner protein Dab2 generate a complex interaction network” (Nature Communications, 2025) are described below.

First the molecules themselves.
T1: Eps15IDR (Eps15's own intrinsically disordered region) (human, UniProt P42566 481-896)
T1 construct: Eps15, UniProt P42566, C-terminal intrinsically disordered region; limits 481-896 from the N-terminal residues 481-521, the overlapping stretches 481-581 to 761-896 and the primer names Eps15_481_Nde1_fw and Eps15_896_Not1_rv; in pET28-6His-GB1; 15N-labelled where it was the observed protein; source: E. coli Rosetta (DE3), purified (nickel column, TEV cleavage, SEC); not shown: 6His, N-terminal, …
T1 sequence (looked up): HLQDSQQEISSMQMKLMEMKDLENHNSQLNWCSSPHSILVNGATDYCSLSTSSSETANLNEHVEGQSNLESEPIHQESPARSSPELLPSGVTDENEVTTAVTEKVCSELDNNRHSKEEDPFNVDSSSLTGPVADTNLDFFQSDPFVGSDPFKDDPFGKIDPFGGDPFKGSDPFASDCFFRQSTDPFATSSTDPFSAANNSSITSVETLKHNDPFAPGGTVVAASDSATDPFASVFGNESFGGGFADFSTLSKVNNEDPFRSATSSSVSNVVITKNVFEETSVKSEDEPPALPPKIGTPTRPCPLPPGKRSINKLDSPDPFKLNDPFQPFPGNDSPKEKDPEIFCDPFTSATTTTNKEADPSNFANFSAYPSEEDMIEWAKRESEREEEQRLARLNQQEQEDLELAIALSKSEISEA

B1: Dab2_(320–495) (domain or fragment, UniProt P98082 320-495, looked up)
chain: KKENSSSSSTPLSNGPLNGDVDYFGQQFDQISNRTGKQEAQAGPWPFSSSQTQPAVRTQNGVSEREQNGFSVKSSPNPFVGSPPKGLSIQNGVKQDLESSVQSSPHDSIAIIPPPQSTKPGRGRRTAKSSANDLLASDIFAPPVSEPSGQASPTGQPTALQPNPLDLFKTSAPAPV
notes: gene bought from Twist Bioscience, in pET28a; 15N-labelled where it was the observed protein; The S328C mutant was used only for microscopy of droplets and is not written; also called Dab2 fragment; source: E. coli Rosetta (DE3), purified (nickel column, SEC); not shown: His-tag, C-terminal, kept
B2: Eps15 EH123 (EH1-EH2-EH3, the full EH-domain containing region) (domain or fragment, human, UniProt P42566 1-310, looked up)
chain: MAAAAQLSLTQLSSGNPVYEKYYRQVDTGNTGRVLASDAAAFLKKSGLPDLILGKIWDLADTDGKGILNKQEFFVALRLVACAQNGLEVSLSSLNLAVPPPRFHDTSSPLLISGTSAAELPWAVKPEDKAKYDAIFDSLSPVNGFLSGDKVKPVLLNSKLPVDILGRVWELSDIDHDGMLDRDEFAVAMFLVYCALEKEPVPMSLPPALVPPSKRKTWVVSPAEKAKYDEIFLKTDKDMDGFVSGLEVREIFLKTGLPSTLLAHIWSLCDTKDCGKLSKDQFALAFHLISQKLIKGIDPPHVLTPEMIPP
notes: Eps15, UniProt P42566, the three N-terminal EH domains in row; in pET28-6His-GB1; 15N-labelled where it was the observed protein; source: E. coli Rosetta (DE3), purified (nickel column, TEV cleavage, SEC); not shown: 6His, N-terminal, cleaved; GB1, N-terminal, cleaved
B3: Eps15 EH2 domain (domain or fragment, human, UniProt P42566 121-215, looked up)
chain: PWAVKPEDKAKYDAIFDSLSPVNGFLSGDKVKPVLLNSKLPVDILGRVWELSDIDHDGMLDRDEFAVAMFLVYCALEKEPVPMSLPPALVPPSKR
notes: Eps15, UniProt P42566, second EH domain; in pET41c; The NdeI primer puts a start methionine before P121; non-cleavable C-terminal His-tag from pET41c; 15N-labelled where it was the observed protein; source: E. coli Rosetta (DE3), purified (nickel column, SEC); not shown: His-tag, C-terminal, kept

What all share (conditions): both partners purified
Test [1] deals with B2. As to the kind of experiment: NMR titration; competition: equimolar EH123, Eps15IDR and Dab2(320-495) together, observed in turn on 15N EH123, 15N Eps15IDR and 15N Dab2(320-495); NMR buffer pH 6, 25 °C.
Test [2] concerns the target T1, Eps15IDR (Eps15's own intrinsically …). Briefly: NMR titration; equimolar unlabelled Eps15IDR (200 µM) added to 200 µM 15N EH123; 1H-15N TROSY-HSQC CSPs and R1rho at 1200 MHz; NMR buffer pH 6, 25 °C.
Test [3] addresses B1. As to the kind of experiment: NMR CPMG relaxation dispersion; 100 µM 15N Dab2(320-495) with 10 µM (10%) EH2; 600 and 900 MHz; 12 residues of helixN and the NPF motif fitted globally, two-site exchange model (ChemEx); NMR buffer pH 6, 25 °C.

Turning to B1, the binding result in test [1] is given as “binds”.
On to B2, for which, in test [2], the binding result is listed as “binds”.
For B3, the Kd in test [3] turned out to be 196 µM.
